Data taken from paper doi:10.1101/682807.
Where “and” joins values, the source holds several entries; their conditions need not be identical. Equal entries are not always repeated.

Tests used:
[1] = target: HR4^Fei-0 (overexpressed in N. benthamiana) (A. thaliana); assay: SDS-resistant dimers on SDS-PAGE immunoblot
[2] = target: RPP7b-3×FLAG (A. thaliana); assay: native gel or EMSA

| Substance | stoichiometry N [1] | stoichiometry N [2] |
| --- | --- | --- |
| HR4^Fei-0 (overexpressed in N. benthamiana) (natural protein) | 2 |  |
| RPP7b-3×FLAG (natural protein) |  | 7 and 6 |
